Laboratory results taken from the nanobody polyreactivity screen of Harvey et al. (2022).

Assay: yeast display, Sf9 membrane polyspecificity reagent, FACS + sequencing; frameworks hold sequencing errors
Summary of the method: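 In a synthetic yeast display library (Saccharomyces cerevisiae BJ5465), nanobody expression was induced with galactose for 36–48 hours. FACS gates were set low and high (top ~1%) using anti-HA fluorescence for expression and streptavidin fluorescence for binding of the Sf9 membrane reagent. Each polyreactivity label is drawn from the gate of origin.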

Sequence | polyreactivity (PSR sort gate)
QVQLVESGGGLVQAGGSLRLSCAASGFTFRGNAMGLYRQAPRKERELVATITYNAGSTYYADSVKGRFTISRDNAKNTVYLQMNSLKPEDTAVYYCAVELDSVPDYEPWTEYDYWGQGTQVTVSS | low polyreactivity
QVQLVESGGGLVQAGGSLRLSSAASGLTFQEYAMGWYRQAPGKESELVAAISWSGGSTYYADSVKGRFTISRDNAKNTVYLQMNSLKPEDTAVYYCAAEAYEEYITGWYAYDYWGQGTQVTVSS | high polyreactivity
QVQLVESGGGLLQAGGSLRVSCAASGSTLVGNTMGWYRQAPGKESELLAAITGVGSTNYADSVKGRFTISRDNAKNSVYLQMNSLKPEDTAVYSCAAEYSYTYIVSYLYDMDYWGQATQVTVSS | low polyreactivity
QVQLVESGGGLVQAGGSLRLSCAASGLIFTTYDMGWYRQAPGKERELVAAISASSDTTYYADSVKGRFTISRDNAKNTVYLQMNSLKPEDTAVYYCAADRFDFPTATGSNYWGQGTQVTVSS | low polyreactivity
QVQLVESGGGLVQAGGSLRLSCAASGFTFGYYAMGRYRQAPGKERELVATITSSGASTYADSVKGRFTISRDNAKNTVYLLMNSLKPEDTAVYYCAADRLPSYWSWYGYDYWGQGTQVTVSS | high polyreactivity
QVQLVESGGGLVQAGGSLRLSCAASGSTFYKYDMGWYRQAPGKEREFVAVISWSGGNTYYADSVKGRFTISRDNAKNNVYLQMNSLKPEDTAVYYCAADNYPDEYDYWGQGTQVTVSS | low polyreactivity
QVQLVESGGGLVQAGGSLRLSCAASGRIFATNAMGWYRQAPGKERELVATITRSAGRTYYADSVKGRFTISRDNEKNTVYLQMNILKPDVTAVYYCAADGYSTAVDDTVRYIVEYEFWGQGTQVTVSS | low polyreactivity
QVQLVESGGGLVQAGGSLRLSCAASGRIFKYNAMGWYRQATGKERELVAAISSSGGSTYYADSVKGRFTISRDNANNTVYLQMNSLKPEDTAVYYCAARYNSRVYRYDYWGQGTQVTVSS | high polyreactivity
QVQLVESGGGLVQAGGSLRLSCAASGGIFGRYAMGWYIQAPGKERELFAAISKRGGSTYYADSVKGRFTISRDNAKNTVYLQMNSLKPEDTAVYYCNAYRLSYTTFGKADGDYWGQGTQVTVSS | high polyreactivity
QVQLVESGGGLVQAGGSLRLSCAASGLTFVPYAMGWSRQAPGNERELFAAITWSGGSTYYADSVKGRFTISRDNAKNTVYLQMNSLKQEDTAVYYCAADFLLSTSTEYYYWGHGTQVTVSS | high polyreactivity
QVQLVESGGGLVQAGGSLRLSCAASGITFIKNAMGWYRQAPGKERELVAAISRSGGRTYYADSVKGRFTISRDNAKNTVYLQMNSLKPEDTAVYYCAAVTQRSYFYDYWGQGTQVTVSS | high polyreactivity
QVQLVESGGGLLQAGGSLRLSCAASGRTFSGYTMGWYRQAPGKERELLATIRDRGGSTYYADSVKGRFTISRDNAKNTVYLQMNSLTPEDSAVYYCAARRGRRYYYWGQGTQVTVSS | high polyreactivity
QVQLVESGGGLVQAGGSLRLSCAASGSTSTYNAMGWYRQAPGKERELVAAITESGGSTYYADSVKGRFTISRDNAKNTVYLQMNSLKPEDTAVYYCAADLTYTYEFWGQGTQVTVSS | low polyreactivity
QVQLVESGGGLVQAGGSLRLSCAASGSTFSGYAMGWYRQAPGKERELVAAISTSGGRTYYADSVKGRFTISRDNAKNTVYLQMNSLKPEDTAVYYCAAQYRGLYKGLGSWGQGTQVTVSS | high polyreactivity
QVQLVESGGGLVQAGGSLRLSCAASGRIFGDYGMGWYRQAPGNERELVAAITDRGGTTYYADSVKGRFTISRDNAKNTVYLQMNSLKPEDTAVYYCNARQSDIFDYDYWGQGTQVTVSS | low polyreactivity
QVQLVESGGGLVQAGGSLRLSCAASGRIFTPYVMGWYRQAPGKERELVARISWTGSSTYYADSVKGRFTISRDNAKNTVYLQMNSLKPEDTAVYYCAKRLTRFYTRLEYWGQGTQVTVSS | low polyreactivity
QVQLVESGGGLVQAGGSLRLSCAASGFTFPRYAMGWYRQAPGKERELVAAITSGDRTYYADSVKGRFTISRDNAKNTVYLQMNSLKPEDTAVYYCATSSRYRYWHRYDYWGLGTQVTVSS | high polyreactivity
QVQLVESGGGFVQAGVSLRLSCAASGLILVPNTMGWYRQAPGKERELVATITNGGSTNYADSVKGRFTISRDNAKNTVYLQMNSLKPEDTAVSYCNADHSYHIASTRHVDYWGQGTQVTVSS | low polyreactivity
QVQLVESGGGLVQAGGSLRLSCAASGRIFYYYAMGLYRQAPGKERELVAAISGSGGTTYNADSVKGRITISRDHAKNTVYLQMNSLKPEDTAVYYCAEVQYRYAREYYYWGQCTQVTVSS | high polyreactivity
QVQLVESGGGLVQAGGSLRLICAASGSTFYPNAIGWYRQAPGKERELVAAISYTGGRTYYADSVKGRFTISRDNAKNTVYLQMNSLKPEDTAVYYCAVLVVGSTTQDEPYFCGVEHDYWGQGTQVTVSS | low polyreactivity
QVQLVESGGGLVQAGGSLRLSCAASGLTFCRYVMGWYRQAPVKERELVAAITSGDSTNYADSVKGRFTISRDNAKNTVYLQTYSLITEVTAGYYCAADYWYRYYIGRNPWECITFDYWGQGTQVTVSS | low polyreactivity
QVQLVESGGGLVQAGGSLRLSCAASGSIFLNYAMGWYRQAPGKERELVAAISYRVGRTYYADSVKGRFTISRDNAKNTVYLQMNSLKPVDTAVYYCAADSRSPGNDYWGQGTQVTVSS | high polyreactivity

Sequence | polyreactivity (PSR sort gate)
QVQLVETGGGLVQAGGSLRLSCAASGITFSDNAMGWYIQAPVKERELVADISYGGGNTYYADSVQGRFTISRDNAKYTVYLQMNSLKPEDTAVYYCAAVYYFLWYGYYLALDYWGQGTQVTVSS | high polyreactivity
QVQLVESGGGLVQAGGSLRLICAASGSILGTYAMGWYRQAPGNDRELVAAISSSGRTSYADSVKGRFTISRDNAKNTVYLQMNSLKPEETAVYYCNASNYIFLINDPDAAPWLYDYWGQGSQVTVSS | low polyreactivity
QVQLVETGGGLVQAGGSLRLSCAASGRIFKRNTMGWYRQAPGKEREFVASITFSGGSTNYADSVKGRFTISRDNAKNTVYLQMNSLKPEDTAVYYCAARDYHYSTYDYWGQGTQVTVSS | low polyreactivity
QVQLVESGGGLEQAGGRLRLICAASGRTFDRYPMGWYRQAPGKESELVAAITWSGGRTYYADSVKGRFTISRDNAKNTVYLQMNSLKPEDTAVYYCAADNSYRGYHSPYEYWGQGTQVTVSS | low polyreactivity
QVQLVESGGGLVQAGGSLRLSCAASGTTFSPNAMGWYRQAPGKERELVAAITGGGSTYADSVKGRFTISRDNAKNTVYLQMNSLKPEDTAVYYCNADSYSFPYYYWGQGTQVTVSS | low polyreactivity
QVQLVESGGGLVQAGGSLRLSCAASGRTFYYNAMGWYRQAPGKERELVAAISSGDTTKYADSVKGRFTISRDNAKNTVYLQMNSLKPEDTAVYYCAAVYQSYTYYLPKYWSFYQNDYWGLGTQVTVSS | low polyreactivity
QVQLVESGGGLVQAGGSLRLSLAASGSNFSSYAMGWYRQAPGKEREWVAAIRLIGGTTYYADSVKGRFTISRDNAKNTVYLQMNSLKPEDTAVYYCNAPSYPDYIYWSQRYDYDYWGQGTKVTVSS | low polyreactivity
QVQLVESGGGLVQAGGSLRLSCAASGFIFYTYAMGWYRQAPGKERELGADITSGGSTYYADSVKGRFTISRDNAKNTVYLQMNSLKPEDTAVYYCAADPGYPANRTEWRDFDYWGQGTQVTVSS | low polyreactivity
QVQLVESGGGLDQAGGSLRLSCAASGSIFEKYAMGWYRQAPGKERELVAGISRSGGSTYYADSVKGRFTISRDNAKNTVYLQMNSLKLEDTAFYFCAARYTRYGSFYGFGYWGQGTQVTVSS | high polyreactivity
QVQLVESGGGLVQAGGSLRLSCAASGSIFSVNAMGWYRQAPGKETELVAGITISGGRTYYADSVKGRFTISRDNAKNTVYLQLNSLKPEDNAVYYCAADWVYPPGLKDSVHFGEYDYWGEGTQVTVSS | low polyreactivity
QVQLVESGGGLVQAGASLRLSCAASGSIFADYAMGWYRQAPGKERELVAAISYNGDSTYYADSVKGRFTISRDNAKNTVYLQMNSLKPEDTGVYYCATEDNYWYVTGDLYHTAFYYWGQGTQVTVSS | low polyreactivity
QVQLVESGGGLVQAGGSLRLSCAASGNTFDFYAMGWYRQAPGKEREFVAAISNGGSTTYADSVKGRFTISRDNAKNTVYLQMNSLKPEDTAVYYCAADPRNAEYDDASMDYWGQGTQVTVSS | high polyreactivity
QVQLVESGGGLVQAGGSLRLICAASGSIVKNYAMGWYTQAPGKERELVAVISSGGSTNYADSVKGRFTISRDNAKYTVYLHMNSLIPEDTAVYSCAAERKSRGFWYDYWGQGTQVTVSS | high polyreactivity
QVQLVESGGGLVQAGGSLRLSCAASGSTFAHNAMGWYRQAPGKERELVATISGSGGTTRYADSVKGRFTISRDNAKNTVYLQMNSLKPEDTAGYYCAAQSSTPKLYDYWGQGTQVTVSS | low polyreactivity
QVHLVESGGGLVQAGGSLRLSCTASGRTFKYNSMGSSRQEPGKERELVAAISSRGGSTYYADSVKGRFTISRDNAKNTVYLQMNSLKPEDTAVYYCAAQFTTRYDWGQGTQVTVSS | high polyreactivity
QVHLVESGGGLVQAGGSLRLSCAASGRIFDYNTMGWYRQAPGKERELVAAITGGTGSTYYADSVKGRFTISRDNAKNTVYLQMNSLKPEDTAVYYCAAGFHKRVTPEILYDYWGQGTQLTVSS | low polyreactivity
QVHLVESGGGLVQAGGSLRLSCAASGGTFWWYTMGWYRQAPGKERELVATITRGGSTNYADSVKGRFTISRDNAKNTVYLQMNSLKPEDTAVYYCSARWYVYVHFERYYWGQGTQVTVSS | high polyreactivity
QVQLVESGGGLVHAGGSLRLSCAASGFIFDTYAMGWYRQAPGKERELVAAISRSGVRTYYADSVKGRFTISRDNAKNTVYLQMNILKPEDTAVYYCNAALNRYHFGRAFPGVYWGHGTQVTVSS | high polyreactivity
QVQLVESAGGLVQAGGSLRLSCAASGLTFTTYAMGWYRQAPGKERELVAAISRRGSRTYYADSVKGRFTISRDNAKNTVYLQMNSLKPEDTAVYYCNALTGSFKTYSFDYWGQGTQVTVSS | high polyreactivity
QVQLVESGGGLVQAGGSLRLSCAASGNNFSAYAMGWYRQAPGKERELVATITSGGRTYYADSVKGRFTISRDNAKNTVYLQMNSLKPEDTAVYYCAADGPYYSPYYYWGQGTQVTVSS | low polyreactivity
QVQLVESGGGLVQAGGSHRLSCAASGSIFTAYALGWYRQATGKARELVAAIDVSGDSTYYADSVKGRFTISRDNAKKTVYLQMNSLKPEDTAVYYCKAEYRVNKEYDYWGQGTQVTVSS | low polyreactivity
